From PMC1635300

Target: Progesterone receptor isoform B (PRB) (Homo sapiens, UniProt P06401 1-933)
Assay: EMSA

Sequence of Progesterone receptor isoform B (PRB) (P06401 whole entry, canonical isoform): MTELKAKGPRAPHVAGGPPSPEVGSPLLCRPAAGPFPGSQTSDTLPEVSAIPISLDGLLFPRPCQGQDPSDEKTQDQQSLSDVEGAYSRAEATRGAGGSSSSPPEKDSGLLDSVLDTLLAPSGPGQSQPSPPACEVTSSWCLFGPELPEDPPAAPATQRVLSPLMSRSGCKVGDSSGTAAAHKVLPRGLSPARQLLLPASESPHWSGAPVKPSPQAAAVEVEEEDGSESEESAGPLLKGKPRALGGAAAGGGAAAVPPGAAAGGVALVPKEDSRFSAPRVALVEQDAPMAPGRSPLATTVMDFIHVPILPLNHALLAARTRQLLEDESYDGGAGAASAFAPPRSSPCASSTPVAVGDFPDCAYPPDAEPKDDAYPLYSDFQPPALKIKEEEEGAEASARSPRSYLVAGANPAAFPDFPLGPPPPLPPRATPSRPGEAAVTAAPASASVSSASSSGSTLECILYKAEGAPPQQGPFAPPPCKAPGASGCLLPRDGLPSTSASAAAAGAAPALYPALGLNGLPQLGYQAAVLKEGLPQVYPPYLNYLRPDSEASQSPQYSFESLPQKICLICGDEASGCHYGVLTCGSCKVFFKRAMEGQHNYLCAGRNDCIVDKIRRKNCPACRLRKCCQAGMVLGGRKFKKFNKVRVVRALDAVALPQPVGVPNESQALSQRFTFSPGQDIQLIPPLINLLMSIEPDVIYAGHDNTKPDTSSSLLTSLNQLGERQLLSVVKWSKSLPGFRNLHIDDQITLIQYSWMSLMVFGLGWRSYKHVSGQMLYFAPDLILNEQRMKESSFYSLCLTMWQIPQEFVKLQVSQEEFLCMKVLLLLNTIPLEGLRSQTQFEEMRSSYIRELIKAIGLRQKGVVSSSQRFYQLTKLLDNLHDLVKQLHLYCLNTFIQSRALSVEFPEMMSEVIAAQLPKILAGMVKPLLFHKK

B1: PRE (dsDNA)
DNA 1: GTTACAAACTGTTCT
DNA 2: AGAACAGTTTGTAAC
binding result: binds
